In paper PMC2941729 (Molecular Microbiology, 2010):

Target: the molecule itself
Assay: SEC

B1: G266DΔGAF–His (domain or fragment, Escherichia coli K12, UniProt P37013 171-504, looked up)
chain: MLPGDATPFEAVKQTQMIGLSPGMTQLKKEIEIVAASDLNVLISGETGTGKELVAKAIHEASPRAVNPLVYLNCAALPESVAESELFGHVKGAFTDAISNRSGKFEMADNGTLFLDEIGELSLALQAKLLRVLQYGDIQRVGDDRCLRVDVRVLAATNRDLREEVLAGRFRADLFHRLSVFPLSVPPLRERGDDVILLAGYFCEQCRLRQGLSRVVLSAGARNLLQHYSFPGNVRELEHAIHRAVVLARATRSGDEVILEAQHFAFPEVTLPTPEVAAVPVVKQNLREATEAFQRETIRQALAQNHHNWAACARMLETDVANLHRLAKRLGLKD
binding result: binds
